Measurements: the supplement of paper PMC9170038

Test system: K4 kissing-loop RNA reporter
Assay: apparent KD of K4 kissing-loop reporter; higher = weaker reporter binding
Settings: Eterna round: R107; input ligand: arginine 13.2 mM
Method: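 RNA-MaP round R107: designed RNA switches with theophylline, tryptophan, arginine or FMN aptamers are transcribed on-chip within common flanks. They are titrated with a labelled K4 kissing-loop RNA reporter in RNA-MaP buffer (100 mM Tris pH 7.5, 80 mM KCl, 4 mM MgCl2), without ligand or with the indicated ligand. Median apparent KD per design.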
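Note: bound reporter read as fluorescence of individual clusters on recovered sequencing chips by microscopy, with normalized cluster intensities fitted with a binding model.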

Row | Sequence | apparent KD of K4 kissing-loop reporter [nM]
1 | UUACGAGUGAUGUUCGAAUAAAUCCAUUCAGAGGAUAUAGUAUUAACUAGAAGGCUGAAACCAACUUCGAGUCAUGUUCGAGGAU [Same State FMN A GF 2] | 324
2 | GGGCCUCUGGCUGAUACCAGUGAUAAAGGGUAAGAGACAGGGAGUGAUGUUCCCUUUAGCCACCCUUGGCAGCAGUUUAAGUUUG [Exclusion Theophylline B GF 18] | 82.8
3 | AGUGAUGUGGGAAGGAGCGGUACAUGACUUCAGUGAUGUUGAAGUGAUGAUUUAGUGAUGUGCCAGGUAGGUCGCCUAGAUGUUA [KL-XARG-B7] | 36.7
4 | AGUGAAGUUAGUGAUGUGUGAGUUUGGGAAGGAGCGCCGAGAACGGCAGGUAGGUCGCCCAGUGAUGUUGGUGUAAAGAUGAGAG [whbob_Ex_Arginine_A_2t121] | 184
5 | AAUUGAGUGACGGCCGCCACUAGAGUGAUUUUUUUGUUUGAGUGAUGUUUUGAUGUUUGAUGUUGUAGGACCGGGUUGAGUGAUG [vvrvmullin] | 348
6 | AUUAUAAAGGCGGCCGCCACUAGUGAUGUUAGUGACUUAUGUAUUAUCAUAAGAAUAAAAUAAAAUAGGACCGGGCCAAAAUAUU [AstrosExTryB#3] | 384
7 | CCUCACGUAGGACUAGUGAUGUUAGACUACCGAGGACCGGUACGGCCGCCACUCGUCGUACAAGAUAACCUUCCGCCAGUAUACG | 85.1
8 | UAAUAUAACCGAAGGAGCGCGUGGGCGCAGUGAUGUUGCGCCCGACAUCACUUCAACUAAACGCAGGUAGGUCGCGGUAAUAAUA [Arginine B (Excl) V1] | 83.1
9 | GUGAAUGGCUGAGCAGCCGUGGUACGAGAUACCAGUGAUUUCGAUCACCCUUGGCAGCUCGGCGUGAGUGAUGUUCACGCUACAC [Theo A SS t12a] | 278
10 | AUUCAUGAGUGAUGUUCAUCGGCAGGAGAUACCAGCGAGUUAACCCGCCCUUGGCAGCUCAAGUAUAGGGACUCUGGCAUCGCCU [theeternabot_exclusion_KL_Theo_A_18] | 374
11 | CAUGGAGUGAUGCUCCAUGAUCGGGCUUGGCAGGAUAUGGGAUCUUCCAGAAGGGCCGAUCCCAGCGAGUGAUGUUCGCUGGUCU [Exclusion FMN A GF 27] | 107
12 | AGGUACAAAAGUACCGCUAGAUCCACGGAAGGAGCGGCCGAAAGGCCAGGUAGGUCGCCGGGCAGUGAUGUUGCCGGAUCUAGCA [Omei KL Arginine A SS A v2] | 171
13 | AAGUGAUGUUGUAGUGAUGUUGUGAUGUUGCAGGAUAUAUAGUGAUGUAGAAGGGUAUGUGCAGUUUUCAUAUUUGAGUGUUGAU [mkkhmullin] | 37.6
14 | ACACAGAGUUGCCGAGUGAUGUUCGGCUUACGAGGACCGGUACGGCCGCCACUCGUUACUCUGUGUUUUGGACACCAAGGCGUCG [Tionzaanon] | 449
15 | UGGAUAUAGUGAUGUUAUAUAGAGAGUGAUACCAGUUUAGAGAAGAACCCUUGGCAGCAUAGAAGAGUAUCAUUGGAGAAGAAUG [ExTheophyl.Aq] | 193
16 | UAGUCCUAGUGAUGGUUAUCACGUGGUGGGCGAGGACCGGUACGGCCGCCACUCGACUUUGCAGUGAUGUUGCAAUCCGGACAAU [Exclusion - Tryptophan A (Freestyle 17)] | 215
17 | GAAGUACAGGCGGCCGCCACUAGUGAUGUUAGUGAUAAAAGAUAAAGUAUAUAUCGGCAUGUAGAUAGGACCGGGCCUGAUGGAG [uiiumullin] | 296

Row | Sequence | apparent KD of K4 kissing-loop reporter [nM]
18 | AGUGCCUGCCUUAGCCUUCCCAUCAACUUCCGAGGACCGGUACGGCCGCCACUCGGCCAUCGGGCUAGUGAUGUUACCUGGUGGA [theeternabot_sameState_KL_Trp_A_50] | 302
19 | GUUACGCAUGGAAGGAGCGCUCUCCGGUUUAUUAACACAGUGAUGUUGUGAUUUUACCGAAAGCAGGUAGGUCGCCAUGUGUAAC [Ex Arginine B K4 12] | 320
20 | UGAUACCAGACGGCCGCCACUCCUGCAAGUCAAAGACUUGCUAAGGAAAUCGUCCAGUGAUGUUGGAGGACCGGGUCUGGUAUCU [TrypBX 17 #SwitchBubble #Palindromic #StaticStem] | 670
21 | AAUUCAGUGAUGUUGGAAGGCAAGCGGGAUACCAGCGGAGAAUAACGCCCUUGGCAGCCCAUAUAUCCCAAAUAGAUAAUAGUUC [Same State - Theophylline A (Freestyle 4)] | 220
22 | UAUACGCUAGUGAUGUUGGCGAAGACUGAAGGAGCGUGCGAGAGUACAGGUAGGUCGCAGUCAGACAGAUUGUACCUGUCUUAUG [Arg A SS t10] | 243
23 | CCAUCGCUAUUCGAUACCAGUCAUCACAUCUUUGGUGUGAUAAAGGAGUGAUGUUCCCAAGACCCUUGGCAGCGAAUAGUGAUGG [Theophylline B K4 11] | 222
24 | AGAUUCGACACGGCCGCCACUCGUGGUGGAUUACCUAGUGUCGAAGUUGAGUGAUGUUCAACUACGAGGACCGGGUGUUGAGUCU [KL-XTryp-B7 #analogue] | 161
25 | CCGAUGGGUACAGGAUAUGCCAGUGAUGUUGGUUUAGAUGGACCCAUAAGGAGACACCAGACGGAGGCAGAAGGGUAGCAAGGGA [Isonanti] | 110
26 | AACUCUCAGGCACGCGAGUGAUGUUCGCGCCGAGGACCGGUACGGCCGCCACUCGGGCCUGAGAGAGGUUAUCAAAGAUAGCCAA [whbob_SS_tryp_A] | 105
27 | UUAGCUCUAUAGAGCAAGAGGUAUACUGAUACCAGAGGCUAUAGCCUCCCUUGGCAGCGGAUCGAGUGAUGUUCGUAACCUCAUU [AK4.5 SS Theophylline A] | 661
28 | AACUUAAUUUAUAAGCAGUGAUGUUGCUUACGAGGACCGGUACGGCCGCCACUCGAUCGCAUUUAUGUCUUCAAUUAAUUCAUUA [JR_ExcTryptoA_Sub016] | 196
29 | CGUCACAAACCUAGUCAAGUGAUGUUUGGCCGAGGACCGGUACGGCCGCCACUCGCUCCUGUCACCCAUUCGUGUGUCGCGGACU [theeternabot_exclusion_KL_Trp_A_5] | 148
30 | ACGUCCCGUUUACUCGUGGGUUAGGUCGAUACCAGUAUUCAAACUUACCCUUGGCAGCGACAUGAGUGAUGUUCAUGUGCGAAGA [KL-XTheo-A5 #analogue] | 96.2
31 | AGAAAGAAGGCGGCCGCCACUCUGAUGGGCGAAAGCCCAUUUUUUUAGCAGUGAUGUUGCUUGUUGAGGACCGGGCCAAAGAAAU [2nd] | 174
32 | UGUCAUUGGUCGGCCGCCACUUCAUAGAGAGUGAUGUUCUUAAAGACGGAUCGAAAGAUCUGUCGAAGGACCGGGACCGAUGACU [FiskerMod 9 - Jieux - Same State - Tryptophan B] | 676
33 | GGAUAGGAUAGAGGAUAUGGUAGUGAUGUUACCAAACUGGUUAAACAUGUCAGAAAACUGGCAUGACCAGAAGGUUGUCCUAUCG [FmnBX 27 U9+U75] | 57.1

Same assay, conditions: Eterna round: R107; input ligand: none

Row | Sequence | apparent KD of K4 kissing-loop reporter [nM]
34 | GCAUCCAUGGCAGGAUAUAGGUUCGUGGAGUGAUGUUCCAUAACCCGAGUGAUGUUCGUUAUCCACCUAGAAGGGCCAUGGAUGC [whbob_Ex_FMNB__2th211] | 218
35 | GGUAGCAUGGCGGCCGCCACUCUUCAUUAGUGAUGUUAAUGCCGAGUGGGCAAACUCCGCCAGGAGAGGACCGGGCCAUGCUACC | 80.8
36 | GUAUAAGUGGGCGAUACCAGCUGUCGGUAGUGAUGUUAUUCAGCAGUCAGGAAGUUCGCUAGCCCUUGGCAGCGCCAGUGGUGAC [theeternabot_exclusion_KL_Theo_B_19] | 416
37 | AGGAAGUGAGAAGGAUAUUACACUCGGAAGCGCUAGUGAUGUUAGCAUAGAAACAAGGGAACAUGGUAAGAAGGUCUUACAAUGA [theeternabot_sameState_KL_FMN_B_2] | 38.9
38 | GCCGUAGAUGGAAGGAGCGAGUCCAAACCAUAUUGCUGAAAAUUCGAGUGAUGUUCGUAAGCUCAGGUAGGUCGCCAUCUACGGC | 209
39 | GAUUCAGUGAUGUUGGAAGGCGAGCGGGAUACCAGCCGAGACUCAGGCCCUUGGCAGCCCACAUAUCCCAGGUAGAUAGUCGAUC [Same State - Theophylline A (Freestyle 9)] | 170
40 | GGAUUGCCAGUGAUGUUGGCAUAAUCUGAAGGAGCGCGUGAAAACGCAGGUAGGUCGCAGAACCUUGCCAACUGAUCGAAAGAUC [Ex Arginine A K4 30] | 155
41 | GAACCAGAGGUUGCUGCGGGUUCCAGAGAUACCAGCCGUAUUGAAGGCCCUUGGCAGCUCGAGUGAUGUUCGAGCCGCCUCUGGC [Antius] | 120
42 | AAGAGGUAGGCGGCCGCCACUAGUUGUGAACACAUACAAGCCAGUGAUGUUGGUAUGGUGGGCGGUAGGACCGGGCCUACCUGAA [Exclusion - Tryptophan B (Freestyle 17)] | 257
43 | GUGUGGAUCCGAAGGAGCGUCCGCAAUCCAGUGAUGUUGGGUGUUGGUUUUAGUAGACGAGGACAGGUAGGUCGCGGAUUUACAA [Same State Arginie B GF 23] | 153
44 | UUACGAGUGAUGUUCGAAUAAAUCCAUUCAGAGGAUAUAGUAUUAACUAGAAGGCUGAAACCAACUUCGAGUCAUGUUCGAGGAU [Same State FMN A GF 2] | 277
45 | GGGCCUCUGGCUGAUACCAGUGAUAAAGGGUAAGAGACAGGGAGUGAUGUUCCCUUUAGCCACCCUUGGCAGCAGUUUAAGUUUG [Exclusion Theophylline B GF 18] | 85.5
46 | AGUGAUGUGGGAAGGAGCGGUACAUGACUUCAGUGAUGUUGAAGUGAUGAUUUAGUGAUGUGCCAGGUAGGUCGCCUAGAUGUUA [KL-XARG-B7] | 68.1
47 | AGUGAAGUUAGUGAUGUGUGAGUUUGGGAAGGAGCGCCGAGAACGGCAGGUAGGUCGCCCAGUGAUGUUGGUGUAAAGAUGAGAG [whbob_Ex_Arginine_A_2t121] | 239
48 | AAUUGAGUGACGGCCGCCACUAGAGUGAUUUUUUUGUUUGAGUGAUGUUUUGAUGUUUGAUGUUGUAGGACCGGGUUGAGUGAUG [vvrvmullin] | 386
49 | AUUAUAAAGGCGGCCGCCACUAGUGAUGUUAGUGACUUAUGUAUUAUCAUAAGAAUAAAAUAAAAUAGGACCGGGCCAAAAUAUU [AstrosExTryB#3] | 452
50 | CCUCACGUAGGACUAGUGAUGUUAGACUACCGAGGACCGGUACGGCCGCCACUCGUCGUACAAGAUAACCUUCCGCCAGUAUACG | 98.9
51 | UAAUAUAACCGAAGGAGCGCGUGGGCGCAGUGAUGUUGCGCCCGACAUCACUUCAACUAAACGCAGGUAGGUCGCGGUAAUAAUA [Arginine B (Excl) V1] | 104
52 | GUGAAUGGCUGAGCAGCCGUGGUACGAGAUACCAGUGAUUUCGAUCACCCUUGGCAGCUCGGCGUGAGUGAUGUUCACGCUACAC [Theo A SS t12a] | 300
53 | AUUCAUGAGUGAUGUUCAUCGGCAGGAGAUACCAGCGAGUUAACCCGCCCUUGGCAGCUCAAGUAUAGGGACUCUGGCAUCGCCU [theeternabot_exclusion_KL_Theo_A_18] | 547
54 | CAUGGAGUGAUGCUCCAUGAUCGGGCUUGGCAGGAUAUGGGAUCUUCCAGAAGGGCCGAUCCCAGCGAGUGAUGUUCGCUGGUCU [Exclusion FMN A GF 27] | 113
